In experiment [1] the target is T1, soluble P-selectin (UniProt P16109 42-771, limits assumed).
T1 sequence (looked up): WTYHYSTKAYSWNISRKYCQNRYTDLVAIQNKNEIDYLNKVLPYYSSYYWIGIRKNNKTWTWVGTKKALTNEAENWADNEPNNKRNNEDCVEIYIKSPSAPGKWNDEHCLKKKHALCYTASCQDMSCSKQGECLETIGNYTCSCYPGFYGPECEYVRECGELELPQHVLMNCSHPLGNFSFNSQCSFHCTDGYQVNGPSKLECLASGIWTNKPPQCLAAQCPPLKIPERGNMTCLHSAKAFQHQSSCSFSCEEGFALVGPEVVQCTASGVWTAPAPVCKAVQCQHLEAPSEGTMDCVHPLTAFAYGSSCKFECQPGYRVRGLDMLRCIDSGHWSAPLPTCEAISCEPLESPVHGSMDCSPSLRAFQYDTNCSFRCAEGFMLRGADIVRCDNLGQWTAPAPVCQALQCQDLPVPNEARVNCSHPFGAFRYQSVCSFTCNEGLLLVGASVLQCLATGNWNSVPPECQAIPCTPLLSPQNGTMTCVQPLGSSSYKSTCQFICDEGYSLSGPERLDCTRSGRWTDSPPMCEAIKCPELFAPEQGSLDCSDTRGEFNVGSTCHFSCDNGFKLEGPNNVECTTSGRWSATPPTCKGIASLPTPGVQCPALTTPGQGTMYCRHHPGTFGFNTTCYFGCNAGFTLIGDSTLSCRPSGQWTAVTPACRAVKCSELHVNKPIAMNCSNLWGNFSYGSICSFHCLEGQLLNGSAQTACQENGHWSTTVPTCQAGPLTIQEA
Briefly: SPR (Biacore 3000, 25 C), soluble P-selectin coupled to CM-5 chip, antibody as analyte, bivalent analyte model. As for the experimental part: (§1) All experiments were performed on a Biacore 3000, at 25° C., using 20 mM MOPS, pH 7.5, 150 mM NaCl, 1.5 mM CaCl₂ and 0.005% Tween-20 as running buffer. Low densities of soluble P-selectin or soluble E-selectin (control protein) were covalently coupled on two different surfaces of a CM-5 chip according to the manufacturer's instructions. The coating density was selected with the aim of achieving a maximum binding response of 100-200 RUs.
(§2) Solutions containing G1aggr and the G1 mouse parental monoclonal antibody were diluted and injected onto the CM-5 chip at a flow rate of 30 μl/min for 4 minutes, followed by 3 min to allow for dissociation, at which time the bound antibody was eluted with a 10 μl injection of 10 mM Acetate pH 4.5, 100 mM NaCl at a flow rate of 10 μl/min. A series of concentrations of both antibodies were injected over the soluble P-selectin and the soluble E-selectin surfaces until saturating binding was observed.
The data were analyzed using the Biaevaluation software v 4.1. Sensorgrams from the different cycles were overlaid and the data for all curves of one antibody were simultaneously fitted to a Bivalent analyte model (see FIG. 5). The equilibrium affinity was calculated from the on-rates and off-rates obtained from this analysis.
(In general: In SPR one partner is held on a chip, and binding of the other changes the refractive index at the surface.)

In experiment [2] the target is T2, soluble E-selectin (control protein) (UniProt P16581 22-556, limits assumed).
T2 sequence (looked up): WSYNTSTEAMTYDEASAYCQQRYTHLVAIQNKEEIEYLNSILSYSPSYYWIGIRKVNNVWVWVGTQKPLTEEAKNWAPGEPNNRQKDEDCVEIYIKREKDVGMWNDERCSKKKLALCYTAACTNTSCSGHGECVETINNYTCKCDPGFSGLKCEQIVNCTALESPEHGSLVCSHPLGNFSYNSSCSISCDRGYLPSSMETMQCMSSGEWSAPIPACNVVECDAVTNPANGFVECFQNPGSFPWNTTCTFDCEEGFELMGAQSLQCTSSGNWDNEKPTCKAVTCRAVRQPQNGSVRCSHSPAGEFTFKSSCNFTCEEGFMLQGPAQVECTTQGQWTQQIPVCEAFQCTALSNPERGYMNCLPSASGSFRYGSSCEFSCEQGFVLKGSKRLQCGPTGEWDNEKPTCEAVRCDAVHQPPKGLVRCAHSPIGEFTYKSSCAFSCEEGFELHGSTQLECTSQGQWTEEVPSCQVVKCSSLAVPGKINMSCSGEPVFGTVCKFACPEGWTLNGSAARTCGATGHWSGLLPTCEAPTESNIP
Briefly: SPR (Biacore 3000), soluble E-selectin coupled to CM-5 chip, antibody injected. As for the experimental part:
as §1, §2
There was no binding observed for either antibody to E-selectin.

B1: humanized G1 antibody design labeled "aggressive" (G1aggr) (antibody, V domains shown)
VH: QVQLVQSGAEVKKPGASVKVSCKVSGYTFTSYDINWVRQAPGKGLEWMGWIYPGDGSIKYNEKFKGRVTMTVDKSTDTAYMELSSLRSEDTAVYYCARRGEYGNYEGAMDYWGQGTLVTVSS
VL: DIQMTQSPSSLSASVGDRVTITCKASQSVDYDGHSYMNWYQQKPGKAPKLLIYAASNLESGVPSRFSGSGSGTDFTLTISSLQPEDFATYYCQQSDENPLTFGGGTKVEIK
notes: also called humanized G1aggr; humanized antibody G1aggr
Molecule B1 registered a Kd in experiment [1] of 31.1 nM. Further, in experiment [2], the binding result is listed as “no binding”.

B2: G1 mouse parental monoclonal antibody (antibody, V domains shown)
VH: QVQLQQSGPELVKPGALVKISCKASGYTFTSYDINWVKQRPGQGLEWIGWIYPGDGSIKYNEKFKGKATLTVDKSSSTAYMQVSSLTSENSAVYFCARRGEYGNYEGAMDYWGQGTTVTVSS
VL: DIVLTQDPASLAVSLGQRATISCKASQSVDYDGHSYMNWYQQKPGQPPKLLIYAASNLESGIPARFSGSGSGTDFTLNIHPVEEEDAATYYCQQSDENPLTFGTGTKLELK
notes: Mouse monoclonal antibody from a hybridoma; also called murine mAb G1; parental G1 murine antibody
In experiment [1], B2 had a Kd of 24.4 nM. The binding result in experiment [2] is “no binding”.
